Results taken from patent publication US20230250185A1 (ARCELLX, published 2023).

T1: CD123-Fc (Sino Biological) (human, UniProt P26951 19-305)
T1 construct: Bought reagent; not shown: Fc part of the bought fusion (detected with anti-human Fc HRP)
T1 sequence: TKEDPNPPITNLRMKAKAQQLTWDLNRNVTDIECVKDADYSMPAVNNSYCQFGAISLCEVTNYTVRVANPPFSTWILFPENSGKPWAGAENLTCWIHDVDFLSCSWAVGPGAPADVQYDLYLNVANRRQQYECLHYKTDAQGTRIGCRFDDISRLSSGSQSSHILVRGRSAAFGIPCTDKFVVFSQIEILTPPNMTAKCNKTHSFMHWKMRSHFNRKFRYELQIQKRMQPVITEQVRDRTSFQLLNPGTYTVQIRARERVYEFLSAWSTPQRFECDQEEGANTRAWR

B1: 8W9C D domain as MBP fusion (designed binder)
chain: MGSWDEFGRRLYAIEWRLYALGGSEAELAAFEKEIAAFESELQAYKGKGNPEVEKLREIAAVIRSNLQAYRHN
notes: Expressed in E. coli and assayed from leak-out supernatant; also called wild-type (8W9C); parental 8W9C; not shown: limits, linker and position relative to the D dom
B2: 4H2H D domain as MBP fusion (designed binder, not shown: large carriers; small tags and cut ends)
chain: MGSWDEFGRRLYAIEWRLYALGGSEAELAAFEKEIAAFESELQAYKGIGNPEVENLREIAAVIRSNLQAYRHN
notes: also called 8W9C (K48I, K55N)
B3: 6Z5E D domain as MBP fusion (designed binder, not shown: large carriers; small tags and cut ends)
chain: MGSWDEFGRRLYAIEWRLYALGGSEAELAAFEKEIAAFESELQAYKGKGSPEVEKLREIAAVIRSNLQAYRHN
notes: also called 8W9C (N50S)
B4: 5S5W D domain as MBP fusion (designed binder)
chain: MGSWSEFNMRLDAIYERLTALGGSEAELAAFEKEIAAFESELQAYKGKGNPEVEWLRHSAARIRLELQAYRHN
notes: not shown: limits, linker and position relative to the D dom
B5: 5B7L D domain as MBP fusion (designed binder)
chain: MGSWIEFNMRLDAIYERLVALGGSEAELAAFEKEIAAFESELQAYKGKGNPEVEWLRKVAANIRLELQAYRHN
notes: as for B4
B6: Adapter protein comprising the 1F9I D domain and P26(Q26-V229) AFP polypeptide (designed binder)
chain: MGSWDEFGRRLYAIEWQLYAQGGTEAELAAFEKEIAAFESELQAYKGKGNPEVEKLRELAAVIRENLQAYRHN
B7: Adapter protein comprising the 8W9C D domain and P26(Q26-V229) AFP polypeptide (designed binder)
chain: MGSWDEFGRRLYAIEWRLYALGGSEAELAAFEKEIAAFESELQAYKGKGNPEVEKLREIAAVIRSNLQAYRHN
B8: 1J1K D domain as MBP fusion (designed binder, not shown: large carriers; small tags and cut ends)
chain: MGSWDEFSRRLYAIEWRLYALGGSEAELAAFEKEIAAFESELQAYKGKGNPEVEKLREIAAVIRSNLQAYRHN
notes: also called 8W9C (G8S)

molecular target: T1, CD123-Fc (Sino Biological); assay: ELISA, serial dilution of MBP fusion normalized for protein concentration; readout CD123-Fc Binding (A450)

Binder	EC50 [ng/mL]
B1	6.97
B2	5.4
B3	3.26
B4	57.9
B5	3.72

molecular target: T1, CD123-Fc (Sino Biological); assay: BLI (Octet RED386): CD123-Fc captured on AHC sensor, Adapter in solution 500-0.69 nM, 25 C, global 1:1 fit

Binder	Kd [nM]	koff [s⁻¹]	kon [M⁻¹ s⁻¹]
B6	7.6	0.000646	85200
B7	5.2	0.000924	177000

molecular target: T1, CD123-Fc (Sino Biological); assay: ELISA, serial dilution of MBP fusion normalized for protein concentration; readout CD123-Fc Binding (A450); remark: another data set of the same source

Binder	EC50 [ng/mL]
B1	7.47
B8	3.69
B4	68.7
B5	5.12
